Experimental data as given in patent publication US20180327506A1 (AbbVie / Abbott, published 2018).
Like-named read-outs stand apart in the source and are kept apart here.

Assays:
[1] = molecular target: T1, full-length mature human EMR2 (residues Q24-N823) with N-terminal aspartic acid/lysine epitope tag, … (human, UniProt Q9UHX3 24-823); test: cell-based or functional assay
T1 sequence: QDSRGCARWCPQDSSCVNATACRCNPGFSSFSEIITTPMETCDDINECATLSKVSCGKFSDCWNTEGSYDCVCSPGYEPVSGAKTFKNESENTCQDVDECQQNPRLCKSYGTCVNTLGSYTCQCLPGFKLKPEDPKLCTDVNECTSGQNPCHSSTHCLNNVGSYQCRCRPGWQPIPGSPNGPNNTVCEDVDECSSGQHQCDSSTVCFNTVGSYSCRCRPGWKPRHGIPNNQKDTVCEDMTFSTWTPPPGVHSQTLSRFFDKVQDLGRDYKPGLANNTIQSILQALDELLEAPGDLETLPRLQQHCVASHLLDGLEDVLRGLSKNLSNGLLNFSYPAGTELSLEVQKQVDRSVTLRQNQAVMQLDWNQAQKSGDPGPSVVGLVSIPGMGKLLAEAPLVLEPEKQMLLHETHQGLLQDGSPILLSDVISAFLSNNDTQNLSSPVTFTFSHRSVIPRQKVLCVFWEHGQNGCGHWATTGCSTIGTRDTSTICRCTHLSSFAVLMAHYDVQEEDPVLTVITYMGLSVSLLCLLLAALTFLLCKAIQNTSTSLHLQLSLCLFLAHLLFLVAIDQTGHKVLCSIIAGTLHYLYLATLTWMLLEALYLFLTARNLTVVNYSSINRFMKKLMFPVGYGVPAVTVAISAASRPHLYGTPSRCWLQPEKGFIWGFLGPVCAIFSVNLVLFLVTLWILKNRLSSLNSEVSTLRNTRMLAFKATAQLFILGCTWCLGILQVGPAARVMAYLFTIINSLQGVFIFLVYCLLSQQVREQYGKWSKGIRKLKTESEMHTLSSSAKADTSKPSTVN

[2] = molecular target: T2, full-length mature cynomolgus EMR2 (residues Q24-N816) with N-terminal aspartic acid/lysine epitope tag, … (cynomolgus monkey (Macaca fascicularis), UniProt A0A2K5WL23 21-816); test: cell-based or functional assay
T2 sequence: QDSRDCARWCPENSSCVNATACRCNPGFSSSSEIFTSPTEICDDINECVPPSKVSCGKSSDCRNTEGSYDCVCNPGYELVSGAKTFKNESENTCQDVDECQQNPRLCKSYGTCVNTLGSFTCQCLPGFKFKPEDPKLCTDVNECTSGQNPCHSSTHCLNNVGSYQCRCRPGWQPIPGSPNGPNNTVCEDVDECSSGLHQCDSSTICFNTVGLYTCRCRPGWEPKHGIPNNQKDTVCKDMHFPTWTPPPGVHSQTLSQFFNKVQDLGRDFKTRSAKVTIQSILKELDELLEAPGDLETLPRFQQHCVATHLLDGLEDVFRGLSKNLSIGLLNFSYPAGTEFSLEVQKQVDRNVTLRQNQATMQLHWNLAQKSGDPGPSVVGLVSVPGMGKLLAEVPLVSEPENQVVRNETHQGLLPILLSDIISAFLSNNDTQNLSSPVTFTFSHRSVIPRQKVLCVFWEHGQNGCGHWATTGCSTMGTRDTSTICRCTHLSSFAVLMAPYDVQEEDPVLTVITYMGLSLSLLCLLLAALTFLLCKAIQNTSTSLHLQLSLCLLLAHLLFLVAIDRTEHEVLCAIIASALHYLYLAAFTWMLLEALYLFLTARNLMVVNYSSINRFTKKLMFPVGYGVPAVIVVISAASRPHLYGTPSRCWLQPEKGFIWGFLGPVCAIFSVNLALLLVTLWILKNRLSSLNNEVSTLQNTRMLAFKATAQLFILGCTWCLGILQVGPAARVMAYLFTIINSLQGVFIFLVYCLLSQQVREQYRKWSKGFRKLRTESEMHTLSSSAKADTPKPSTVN

[3] = molecular target: T3, full-length mature human CD97 (residues Q21-I845) with N-terminal aspartic acid/lysine epitope tag, … (human, UniProt P48960 21-835); test: cell-based or functional assay
T3 sequence (looked up): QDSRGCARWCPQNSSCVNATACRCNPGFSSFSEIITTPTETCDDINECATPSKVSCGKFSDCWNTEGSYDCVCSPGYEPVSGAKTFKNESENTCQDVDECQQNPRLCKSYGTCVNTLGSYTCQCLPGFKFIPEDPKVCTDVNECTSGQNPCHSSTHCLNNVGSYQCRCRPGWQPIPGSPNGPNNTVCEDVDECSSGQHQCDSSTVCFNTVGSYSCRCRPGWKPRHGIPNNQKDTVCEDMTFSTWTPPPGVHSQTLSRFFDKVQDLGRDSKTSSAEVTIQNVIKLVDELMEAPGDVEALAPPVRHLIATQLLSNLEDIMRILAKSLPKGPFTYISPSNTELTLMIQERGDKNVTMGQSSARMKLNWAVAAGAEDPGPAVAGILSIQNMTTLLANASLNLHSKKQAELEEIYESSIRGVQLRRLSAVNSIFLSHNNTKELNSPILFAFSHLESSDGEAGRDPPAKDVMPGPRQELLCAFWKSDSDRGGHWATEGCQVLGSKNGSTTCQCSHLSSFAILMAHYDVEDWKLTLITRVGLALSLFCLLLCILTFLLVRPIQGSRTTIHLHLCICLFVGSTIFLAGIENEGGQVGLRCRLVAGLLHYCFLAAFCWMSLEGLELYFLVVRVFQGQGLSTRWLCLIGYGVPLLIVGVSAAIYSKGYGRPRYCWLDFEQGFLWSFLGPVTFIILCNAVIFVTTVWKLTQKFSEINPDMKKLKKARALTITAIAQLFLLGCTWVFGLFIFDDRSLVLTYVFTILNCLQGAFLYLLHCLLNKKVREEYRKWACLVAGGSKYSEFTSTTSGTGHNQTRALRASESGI

[4] = molecular target: T1, full-length mature human EMR2 (residues …); test: flow cytometry on transduced HEK293T; 293 naive MFI 97.2
Method: (§1) The exemplary antibodies were also tested using flow cytometry to determine their ability to associate with hEMR2, cEMR2 and CD97 expressed on the surface of cells.

[5] = molecular target: T2, full-length mature cynomolgus EMR2 …; test: as above
Method: as §1

[6] = molecular target: T3, full-length mature human CD97 (residues …); test: as above
Method: as §1

[7] = molecular target: T1, full-length mature human EMR2 (residues …); test: flow cytometry on transduced HEK293T; 293 naive MFI 95.6
Method: as §1

[8] = molecular target: T2, full-length mature cynomolgus EMR2 …; test: as above
Method: as §1

[9] = molecular target: T3, full-length mature human CD97 (residues …); test: as above
Method: as §1

[10] = molecular target: T1, full-length mature human EMR2 (residues …); test: cell-based or functional assay; remark: listed apart in the source
[11] = molecular target: T2, full-length mature cynomolgus EMR2 …; test: cell-based or functional assay; remark: listed apart in the source
[12] = molecular target: T3, full-length mature human CD97 (residues …); test: cell-based or functional assay; remark: listed apart in the source
[13] = molecular target: T4, human EMR2 as naturally expressed on primary and PDX tumor cells, blood and bone marrow cells and hematologic … (human, UniProt Q9UHX3 24-823); test: flow cytometry on AML33p0 cells, against isotype control
T4 construct: Endogenous protein; also called hEMR2; CD312
T4 sequence: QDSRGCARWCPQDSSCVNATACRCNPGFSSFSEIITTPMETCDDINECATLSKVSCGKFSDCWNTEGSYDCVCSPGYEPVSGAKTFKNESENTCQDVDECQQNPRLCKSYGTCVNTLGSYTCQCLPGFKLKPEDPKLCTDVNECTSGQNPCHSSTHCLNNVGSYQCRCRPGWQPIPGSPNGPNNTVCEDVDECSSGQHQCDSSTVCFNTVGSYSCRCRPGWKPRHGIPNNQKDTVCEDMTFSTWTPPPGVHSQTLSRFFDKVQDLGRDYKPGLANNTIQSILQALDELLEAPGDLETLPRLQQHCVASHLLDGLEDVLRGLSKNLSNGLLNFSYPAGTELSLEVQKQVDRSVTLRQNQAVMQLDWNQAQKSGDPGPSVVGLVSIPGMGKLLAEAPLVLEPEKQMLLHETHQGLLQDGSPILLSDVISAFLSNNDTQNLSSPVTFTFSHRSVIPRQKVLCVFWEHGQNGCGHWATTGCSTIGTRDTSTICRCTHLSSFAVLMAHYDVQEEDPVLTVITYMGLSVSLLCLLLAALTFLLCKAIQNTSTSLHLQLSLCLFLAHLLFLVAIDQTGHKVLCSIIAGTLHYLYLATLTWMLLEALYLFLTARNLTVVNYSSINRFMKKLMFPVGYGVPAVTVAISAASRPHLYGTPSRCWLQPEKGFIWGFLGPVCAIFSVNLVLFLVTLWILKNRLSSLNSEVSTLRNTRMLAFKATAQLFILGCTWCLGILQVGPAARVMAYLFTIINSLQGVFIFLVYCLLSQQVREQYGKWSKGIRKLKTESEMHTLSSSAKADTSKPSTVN
Method: (§2) AML PDX samples were harvested by extracting both femora and tibiae from a mouse. After removing any attached muscle tissue the bones were combined and grinded up using a mortar and pistil to release the bone marrow from the rest of the bone. Cell suspensions were harvested and red blood cells lysed by exposure to a hypotonic ammonium-chloride-potassium solution (ACK). After 5 min incubation on ice the red blood cell lysis was stopped by adding 2% fetal bovine serum in PBS buffer (FSM), cells harvested by centrifugation and any tissue debris filtered out using a nylon mesh. Primary human AML samples were obtained cryopreserved as Ficol isolated mononuclear cells, thawed, washed once in FSM and used for analysis. Single cell suspensions were incubated with 4′,6-diamidino-2-phenylindole (DAPI) to detect dead cells, anti-human CD45 and CD33 to identify human leukemic cells. […] In order to partition bulk AML leukemic populations into NTG and CSC subpopulations, the PDX tumor cells were further incubated with anti-human CD34 and CD38 or candidate AML CSC markers.

[14] = molecular target: T4, human EMR2 as naturally expressed on …; test: flow cytometry on AML37p0 cells, against isotype control
Method: as §2

[15] = molecular target: T4, human EMR2 as naturally expressed on …; test: flow cytometry on AML40p0 cells, against isotype control
Method: AML PDX samples were harvested by extracting both femora and tibiae from a mouse. After removing any attached muscle tissue the bones were combined and grinded up using a mortar and pistil to release the bone marrow from the rest of the bone. Cell suspensions were harvested and red blood cells lysed by exposure to a hypotonic ammonium-chloride-potassium solution (ACK). After 5 min incubation on ice the red blood cell lysis was stopped by adding 2% fetal bovine serum in PBS buffer (FSM), cells harvested by centrifugation and any tissue debris filtered out using a nylon mesh. Primary human AML samples were obtained cryopreserved as Ficol isolated mononuclear cells, thawed, washed once in FSM and used for analysis. Single cell suspensions were incubated with 4′,6-diamidino-2-phenylindole (DAPI) to detect dead cells, anti-human CD45 and CD33 to identify human leukemic cells. The resulting single cell suspensions comprised a bulk sample of tumor and non-tumor cells including both NTG cells and CSCs. In order to partition bulk AML leukemic populations into NTG and CSC subpopulations, the PDX tumor cells were further incubated with anti-human CD34 and CD38 or candidate AML CSC markers.

[16] = molecular target: T4, human EMR2 as naturally expressed on …; test: flow cytometry on AML20p4 PDX cells, against isotype control
Method: as §2

[17] = molecular target: T4, human EMR2 as naturally expressed on …; test: flow cytometry on AML23p2 PDX cells, against isotype control
Method: as §2

[18] = molecular target: T4, human EMR2 as naturally expressed on …; test: flow cytometry on AML16-p4 PDX cells, against isotype control
Method: as §2

[19] = molecular target: T1, full-length mature human EMR2 (residues …); test: flow cytometry on transduced HEK293T; 293 naive MFI 143
Method: as §1

[20] = molecular target: T2, full-length mature cynomolgus EMR2 …; test: as above
Method: as §1

[21] = molecular target: T3, full-length mature human CD97 (residues …); test: as above
Method: as §1

B1: SC93.221 (antibody, IgG1, V domains shown)
VH: QIQLVQSGSELKKPGETVKISCKASGYTFTDYSINWVKQAPGKGFKWMGWINTYTGVPTYADDFKGRFAFSLETSATTAYLQINNLKNEDTATYFCARARYDGYYGRFDYWGQGTTLTVSS
VL: DFLMTQTPLSLPVSLGDQASISCRSSQSIVHSNGDTYLEWFLQKPGQSPKLLIYKVSNRFSGVPDRFSGSGSGTDFTLKISRVEAEDLGVYYCFQGSHVPFTFGSGTKLEIK
notes: murine, IgG1
% live, FAB-saporin killing assay [1]: 101% | % live, FAB-saporin killing assay [2]: 92.2% | % live, FAB-saporin killing assay [3]: 99.1% | FC MFI [4]: 5080 | FC MFI [5]: 72.5 | FC MFI [6]: 74.2

B2: SC93.219 (antibody, IgG2b, V domains shown)
VH: EVQLVESGGGLVQPGGSRKLSCAASGFTFSSYGMHWVRQAPEKGLEWVAYISSSGGTIYYADTVKGRFTISRDNAKNTLFLQMTSLRSEDTAMYYCARRGYGNSFDYWGQGTTLTVSS
VL: QIVLTQSPAIMSASPGEKVTMTCSASSSVSYMYWYQQKPGSSPRLLIYDTSNLASGVPVRFSGSGSGTSYSLTISRMEAEDAATYYCQQWSSYPPFGGGTKLEIK
notes: murine, IgG2b
% live, FAB-saporin killing assay [1]: 100% | % live, FAB-saporin killing assay [2]: 87.7% | % live, FAB-saporin killing assay [3]: 102% | FC MFI [7]: 76.2 | FC MFI [8]: 85.3 | FC MFI [9]: 87.5

B3: SC93.267 (antibody, V domains shown)
VH: EVQLQQSGPELVKPGASVRMSCKASGYTFTDYNMYWVKQSLGKSLEWIGYIYPNTGGATYNQKFKGKATLTVNKSSSTAFMELRSLTSEDSAVYYCGRGGLGPFAYWGQGTLVTVSA
VL: DIQMTQSPSSLSASLGGKVTITCRASQDINKFISWYQHRPGKGPRLLIHYASTLQPGIPSRFSGSGSGRDYSFSISNLEPEDIATYYCLQYDNLWTFGGGTKLEIR
notes: Murine hybridoma antibody with a kappa light chain; also called anti-hEMR2 antibody SC93.267
% live, FAB-saporin killing assay [10]: 15.6% | % live, FAB-saporin killing assay [11]: 27.8% | % live, FAB-saporin killing assay [12]: 89% | ΔgMFI [13]: 457 | ΔgMFI [14]: 1610 | ΔgMFI [15]: 2000 | ΔgMFI [16]: 475 | ΔgMFI [17]: 547 | ΔgMFI [18]: 898 | FC MFI [19]: 36600 | FC MFI [20]: 38700 | FC MFI [21]: 132
